Test results as given in IntAct's records for PubMed 12802020.

B1: Tumor susceptibility gene 101 protein (Homo sapiens), Q99816 (parent)
chain: MAVSESQLKKMVSKYKYRDLTVRETVNVITLYKDLKPVLDSYVFNDGSSRELMNLTGTIPVPYRGNTYNIPICLWLLDTYPYNPPICFVKPTSSMTIKTGKHVDANGKIYLPYLHEWKHPQSDLLGLIQVMIVVFGDEPPVFSRPISASYPPYQATGPPNTSYMPGMPGGISPYPSGYPPNPSGYPGCPYPPGGPYPATTSSQYPSQPPVTTVGPSRDGTISEDTIRASLISAVSDKLRWRMKEEMDRAQAELNALKRTEEDLKKGHQKLEEMVTRLDQEVAEVDKNIELLKKKDEELSSALEKMENQSENNDIDEVIIPTAPLYKQILNLYAEENAIEDTIFYLGEALRRGVIDLDVFLKHVRLLSRKQFQLRALMQKARKTAGLSDLY

Variants of: B1
Conditions: with hgs_human HGS

Variant	effect of a mutation on the interaction
V89A	decreasing interaction strength
Y63A	decreasing interaction
N45A	decreasing interaction strength

Other lines, results leading:

effect of a mutation on the interaction	Variant
increasing interaction strength	P320L;P323L
decreasing interaction strength	M95A
